Measurements from patent US20120283173A1 (UNIVERSITATSKLINIKUM HAMBURG EPPENDORF, published 2012).

Key:
[1] = biological target: T1, Pseudomonas aeruginosa lectin PA-IL (Pseudomonas aeruginosa, UniProt Q05097 2-122); test: cell-based or functional assay
T1 sequence (looked up): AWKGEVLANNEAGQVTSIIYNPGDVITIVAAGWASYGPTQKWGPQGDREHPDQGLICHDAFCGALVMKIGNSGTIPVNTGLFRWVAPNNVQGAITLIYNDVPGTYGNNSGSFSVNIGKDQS

[2] = biological target: Pseudomonas aeruginosa lectin PA-IIL (Pseudomonas aeruginosa); test: cell-based or functional assay

With FLHTRLFV [HNK-1 mimetic peptide pHNK-1] the “IC50 of inhibition of the PA-IL-induced decrease of ciliary beat frequency (CBF)” value [1] was 484 µM and the “IC50 of inhibition of the PA-IIL-induced decrease of ciliary beat frequency (CBF)” value [2] was 968 µM.

For TVFHFRLL [peptide sHNK-1 (scrambled version of pHNK-1)], the “IC50 of inhibition of the PA-IL-induced decrease of ciliary beat frequency (CBF)” value [1] was 968 µM.
